Reference: patent US20240301052A1 (LANOVA MEDICINES DEVELOPMENT, published 2024)

Target: T1, Rhesus SLC34A2 (Rhesus, UniProt F7HDA3 1-690)
T1 construct: whole, on cells
T1 sequence: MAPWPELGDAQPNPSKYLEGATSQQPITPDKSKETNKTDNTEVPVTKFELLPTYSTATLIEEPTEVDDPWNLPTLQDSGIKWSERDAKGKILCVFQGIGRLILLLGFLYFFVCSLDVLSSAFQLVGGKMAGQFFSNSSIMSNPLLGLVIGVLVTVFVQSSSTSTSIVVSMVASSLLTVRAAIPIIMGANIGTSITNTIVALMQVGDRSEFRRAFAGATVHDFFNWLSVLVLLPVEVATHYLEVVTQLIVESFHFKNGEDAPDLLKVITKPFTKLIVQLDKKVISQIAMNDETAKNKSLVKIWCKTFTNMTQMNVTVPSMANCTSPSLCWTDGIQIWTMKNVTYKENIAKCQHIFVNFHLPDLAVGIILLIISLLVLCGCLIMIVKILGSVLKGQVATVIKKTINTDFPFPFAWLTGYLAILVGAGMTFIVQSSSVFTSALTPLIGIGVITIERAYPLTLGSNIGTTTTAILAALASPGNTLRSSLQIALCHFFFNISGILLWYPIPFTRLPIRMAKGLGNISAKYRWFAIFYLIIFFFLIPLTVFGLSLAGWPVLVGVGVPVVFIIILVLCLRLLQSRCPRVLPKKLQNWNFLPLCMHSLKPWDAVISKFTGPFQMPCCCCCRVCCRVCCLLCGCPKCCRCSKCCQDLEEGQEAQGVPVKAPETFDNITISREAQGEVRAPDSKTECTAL
Test: FACS, HEK293/Rhesus SLC34A2 cells

EC50: 2.6 nM | Top (MFI): 11500 MFI
B1: XMT-1536 (antibody, INN chains, looked up, V domains shown)
VH: QVQLVQSGAEVVKPGASVKMSCKASGYTFTGYNIHWVKQAPGQGLEWIGAIYPGNGDTSYKQKFRGRATLTADTSTSTVYMELSSLRSEDSAVYYCARGETARATFAYWGQGTLVTVSS
VL: DIQMTQSPSSLSASVGDRVTITCSASQDIGNFLNWYQQKPGKTVKVLIYYTSSLYSGVPSRFSGSGSGTDYTLTISSLQPEDFATYYCQQYSKLPLTFGQGTKLELK
modifications: rilsodotin auristatin payload
